Test results reported in the DeepSol protein solubility set.

Experiment: soluble on expression in E. coli; label from the status in PepcDB or PDB records

Row | Sequence | soluble on expression in E. coli
1 | MTEGLAVELAGLRSFSIVMPAYNVVTQRGERIFRETLESIAASCRYLQQHFPYTPEGELILISDGSTDRTCDVAMAGWPNAVPLQLVGLPTNVGIAAARNIGVRLAKGEVIFFCDADDLYRPEHLFLALSVLNQPLPEPYAPAYFGAVRTGVYCRDRLHPYWHKSLEQTLVLNLAVRREVHEFIGGFPEDEVFRQFRYGAEDVAYAYWLHQFCHTARLEQRTVEYRRFPNSVFDRQLKKFQAAPGTVADDLDEGDRQQEAQIRQIMATRLQELQAKAAQGVALEHHHHHH | not soluble
2 | MTLYIIANPHAGNKNASTIVGKIQELYHTEDISVFYTEQKDDEKKQVINILRSFKESDHLMIIGGDGTLSKVMTYLPQHIPCTYYPVGSGNDFARALKIPNLKETLTAIQTERLKEINCFIYDKGLILNSLDLGFAAYVVWKASNSKIKNILNRYRLGKITYIVIAIKSLLHSSKVQVLVEGETGQQIKLNDLYFFALANNTYFGGGITIWPKASALTAELDMVYAKGHTFLKRLSILLSLVFKRHTTSKSIKHQTFKAMTVYFPKNSLIEIDGEIVELDQISLKCQKRYLYM | not soluble
3 | MSHTAEIPMVPGSESPLELKPLKAVDPKAVYHRRAQRLLSLAKDSPLADYFELCRRVVAIQARLAAEADFGQLLAWGKDEAIPLSHLGSEADSYWQGLLQQLLSDLLPQVGEDLARVLRLLMQQSPEQLTSWGASLRQGHMSAVPARFSLFIWAAMGVYWSHWAPMVIKRIDQRKVAQQNLCPICGSHPVASVIVDQPRAGLRYLHCSLCESEWHYIRAHCTSCGQDKGTTLWSFDDTQAQVRIESCDECHGYTKMMFVEKSPLMDVVADDLATLMLDSELNAKGFGATTVNPLLLAHETEQ | not soluble
4 | MAHHHHHHMEAKFLKLRQEREEQRRHRSKKTGAITLQRQQYEAEAELLEAEVMQLLQEGNVTESQQRIDALRTLVQDTSNSISLTAHEMAKANVILARLQQRVDEKCSGAAPKKFKFSSRLKAKPTSDAEPATPSFSPTGTSDTNEATATATVPIAGTVSSTNGFGNVYGPSTGTDLFISHSKGVFINGCADCAIYCLPIAGSAFLSNCTNCRVYVACHQLRLKGCTNLDLYVWCASTPIIEECDAMRFGPYRCWVGLLSSCTEDGKTYATHAEWVSRVGEIEDTARTEQNYVKVDDFQWVKKRASPHWCVLAREEERASTTVFGPATLPSSSTAHSTVAADH | not soluble
5 | SNAMKLMDVHVLFSGGKDSSLSAVILKKLGYNPHLITINFGVIPSYKLAEETAKILGFKHKVITLDRKIVEKAADMIIEHKYPGPAIQYVHKTVLEILADEYSILADGTRRDDRVPKLSYSEIQSLEMRKNIQYITPLMGFGYKTLRHLASEFFILEEIKSGTKLSSDYEAEIRHILKERGESPEKYFPEHKQTRVVGLKKEI | soluble
6 | MGSDKIHHHHHHMHTMHIPSGDVLIPKPKLITEETDPLHIIKTRQKTHGRPVTIAGPMVRYSKLPFRQLCREYNVDIVYSPMILAREYVRNEHARISDLSTNNEDTPLIVQVGVNNVADLLKFVEMVAPYCDGIGINCGCPIKEQIREGIGCALIYNSDLLCSMVHAVKDKYGDKLRIETKIRIHEALDETVELCRKLCDAGVDWITIHGRTRRTRSSQPANLDAIKYIIENISDKNVPVIANGDCFKLSDLERITKYTGAHGVMAVRGLLSNPALFAGYTTCPWGCIEKFCYWALEFGGLPFQLAQHHLYCMLENMELKKSLLKKMMNLKNYISLIDWFNKTFEFKRYGEDGFGMGVEIPYKANSCVQRSASVVERQE | not soluble
7 | MATASHNIDDILQLKDDTGVITVTADNYPLLSRGVPGYFNILYITMRGTNSNGMSCQLCHDFEKTYHAVADVIRSQAPQSLNLFFTVDVNEVPQLVKDLKLQNVPHLVVYPPAESNKQSQFEWKTSPFYQYSLVPENAENTLQFGDFLAKILNISITVPQAFNVQEEFHHHHHHHHHH | soluble
8 | MVTQNKKILIITGSFGNGHMQVTQSIVNQLNEMNLNHLSVIQHDLFMEAHPIMTSICKKWYINSFKYFRNTYKRFYYSRPNELDKCFYKYYGLNKLINLLIKEKPDLILLTFPTPVMSVLTEQFNINIPIATVMTDYRMHKNWITPYSQRYYVATKDTKDDFIEAGVPASYIKVTGIPIADKFEESIDKEEWLSQQHLDPSKPTILMSAGAFGVSKGFDYMINNILEKSPNSQVVMICGRSKELKRSLKAKFKDNPSVKILGYTNHMNEWMASSQLMITKPGGITISEGLSRCIPMIFLNPAPGQELENAYYFESKGFGKIADTPNEAIDIVSDLTNNEETLKVMSSKMLESKVGYSTRKICKDLLDLIGHSSQPDEIYGKVPLYARFFVKLEHHHHHH | soluble
9 | SPNNSKHKKKQQRRQQEAQKKSRAKQIETDKKNDEFLDTELDEVSPLVIDDDMTEFKNMPKVELHAHLSGSLSPETIKLIMESDETRAEEIMKKYKLEKPENMTGVFDCFPVIHAILRKPEAIRIAIRQTIKEFEEDNCVYLELRTSPKETDFMTYEDYLQVCIESFEAAKHEFPRIKTFLIVSLDRRMPFETAAHILGLIGEAQQRTNVIVGVELSGDPHLDGRRLLKLFVAARRFHGLGITIHLAEVLQNMADVEDYLNLRPDRIGHGTFLHTDPYTEYLTNKYKIPLGENLIQLHLIFLFFLEICLSSNVYSKTTTNYRNSHFNYWRKRGVPVFICTDDKGVIPGATLTEEYYKAAITFDLSTEELIGINQDALLNSFAYKYNVTDLTETFRKINNNVLD | not soluble
10 | MGSDKIHHHHHHMKTKLILVGGFLGVGKTTLLGEAARRLSQTGRKVGLITNDQASELVDTVYLEQTGTEVSEVSGSCFCCNFPGFMEAIDHVNAHKPADIIIAEPVGSCTDLSATILQPLKEKFADKLSVAPLSVLVDPRQLTDILDGRTAGLHPSAAYILRKQLEEADLIVINKTDLLTPLAVEILKKRTAEEWPLASVYAISAKTGEGLAAWLHEAQQRSGAGTHLAEVDYDTYAEGEAVLGWLNATIELQSQGADWDTLGRNLLNSLRSRFGSLNAAIGHVKLLIATDQGYVIGNITGAKDSLDIRESAGTGRKAQLTLNARVQMEPDLLEEIVKEEIAKVQADKITATIAVLKCLKPGRPNPTYRYGTIVG | not soluble
11 | MDWRHEAVCRDEDPELFFPVGNSGPALAQVAAAKVVCNRCPVTSQCLAWALETGQDAGVWGGMSEDERRALKRRKNRGRGRARATA | not soluble
12 | MSSNPLRFFVLTIFPHIISCYSEYGIVKQAIKKGKVEVYPIDLREFAPKGQVDDVPYGGLPGMVLKPEPIYEAYDYVVENYGKPFVLITEPWGEKLNQKLVNELSKKERIMIICGRYEGVDERVKKIVDMEISLGDFILSGGEIVALAVIDAVSRVLPGVLSEPQSIQEDSFQNRWLGYPVYTRPREYRGMKVPEELLSGHHKLIELWKLWHRIENTVKKRPDLIPKDLTELEKDILNSILSGKSFKEWLKEHKHLL | soluble
13 | RALCDEDMKKVFTRLPSSSAIPLAVRRAQDMFVLMFLLRGLPFVDLAYLRKSDLRDNVITYRRRKTGRPLSVTLTPEALELLKKYMNRDSHSPYLFSLLKSGEGTKEAYREYQLALRSFNQQLTLLGEVLGLNDKLSSYTARHTWATTAYYCEIHPGIISEAMGHSSIKVTETYLKPFRNKKIDEANNQIIDFVKHSIAGVVS | not soluble
14 | MGSDKIHHHHHHMSKRMIITVGDARVGKSTVIKLLLEIFAQQGKRIKVYNQESFPVFQAYEHIATIKKFNLSNDDADAITDDLNHPELDVMIVDMPGQDIEKVIQYIESASLFEVVVKFGWNLTFLQPISHRKDCIYYLNAIIQNATNNANYVVVKNYHFAPEFREYEEKMRKKLLIIGGTEVELMALHRNHYQAMEKADKPYSQVCQDLSIILFWRSFIFQWIKKFHHSVMNNHLAIKYLGLD | not soluble
15 | MTDQPDVQRVQTASRDNSTVIDLREYKTNKDPLPVTFHRRELDAILRIYGRMVGEGEWRDYAIDHLKEKAVFSVFKRSGEMPLYRIEKNPKLATKQGAYCVVNVDGRILKRGHELPQVLKVFDKVLKLIE | not soluble
